Laboratory results: patent US20190315873A1 (AGOMAB THERAPEUTICS, published 2019)
Changes are numbered by the printed parent chain. Each block holds one molecule with its values, some of them ahead of it.

What was measured:
[1] = molecular target: mouse MET on MLP29 mouse liver precursor cells (mouse) (UniProt P16056); assay: cell-based or functional assay
[2] = molecular target: human MET on A549 human lung carcinoma cells (human) (UniProt P08581); assay: cell-based or functional assay
human MET ECD [3] = molecular target: T1, human MET ECD (human, UniProt P08581 25-932); assay: ELISA, mouse-format mAb on MET ECD
T1 construct: range 1-932; recombinant ECD made by standard protein engineering; also called hMET; human MET extracellular domain
Protocol: (§1) In order to directly determine whether—and to what extent—the prior art agonistic anti-MET antibodies cross-reacted with mouse MET, and to compare them to our human/mouse equivalent anti-MET antibodies, we performed an ELISA assay. Since all prior art antibodies were obtained or engineered with a mouse IgG/A format, we employed the mouse IgG/A version of 71G3, 71D6 and 71G2. Human or mouse MET ECD was immobilized in solid phase (100 ng/well in a 96-well plate) and exposed to increasing concentrations of antibodies (0-40 nM) in solution. […] Among the antibodies tested, only 71G3, 71D6 and 71G2 bound to both human and mouse MET, and they did so with indistinguishable affinities and capacities.

mouse MET ECD [4] = molecular target: T2, mouse MET ECD (mouse, UniProt P16056 25-931); assay: ELISA, mouse-format mAb on MET ECD
T2 construct: range 1-931; recombinant ECD; also called mMET; mouse MET extracellular domain
Protocol: as §1

[5] = molecular target: human MET ECD mutant I (mutations 6, 7, 8) (human) (UniProt P08581); assay: ELISA on mutant human MET ECD
[6] = molecular target: human MET ECD mutant J (mutations 6, 7) (human) (UniProt P08581); assay: ELISA on mutant human MET ECD
rat MET ECD (rat) = rat MET ECD (rat) (UniProt P97523); assay: ELISA: MET ECD immobilized (100 ng/well), mAb in human IgG1/lambda format in solution (0-40 nM), HRP anti-human Fc
Sequence of rat MET ECD (rat) (P97523 25-931 limits assumed, form in doubt): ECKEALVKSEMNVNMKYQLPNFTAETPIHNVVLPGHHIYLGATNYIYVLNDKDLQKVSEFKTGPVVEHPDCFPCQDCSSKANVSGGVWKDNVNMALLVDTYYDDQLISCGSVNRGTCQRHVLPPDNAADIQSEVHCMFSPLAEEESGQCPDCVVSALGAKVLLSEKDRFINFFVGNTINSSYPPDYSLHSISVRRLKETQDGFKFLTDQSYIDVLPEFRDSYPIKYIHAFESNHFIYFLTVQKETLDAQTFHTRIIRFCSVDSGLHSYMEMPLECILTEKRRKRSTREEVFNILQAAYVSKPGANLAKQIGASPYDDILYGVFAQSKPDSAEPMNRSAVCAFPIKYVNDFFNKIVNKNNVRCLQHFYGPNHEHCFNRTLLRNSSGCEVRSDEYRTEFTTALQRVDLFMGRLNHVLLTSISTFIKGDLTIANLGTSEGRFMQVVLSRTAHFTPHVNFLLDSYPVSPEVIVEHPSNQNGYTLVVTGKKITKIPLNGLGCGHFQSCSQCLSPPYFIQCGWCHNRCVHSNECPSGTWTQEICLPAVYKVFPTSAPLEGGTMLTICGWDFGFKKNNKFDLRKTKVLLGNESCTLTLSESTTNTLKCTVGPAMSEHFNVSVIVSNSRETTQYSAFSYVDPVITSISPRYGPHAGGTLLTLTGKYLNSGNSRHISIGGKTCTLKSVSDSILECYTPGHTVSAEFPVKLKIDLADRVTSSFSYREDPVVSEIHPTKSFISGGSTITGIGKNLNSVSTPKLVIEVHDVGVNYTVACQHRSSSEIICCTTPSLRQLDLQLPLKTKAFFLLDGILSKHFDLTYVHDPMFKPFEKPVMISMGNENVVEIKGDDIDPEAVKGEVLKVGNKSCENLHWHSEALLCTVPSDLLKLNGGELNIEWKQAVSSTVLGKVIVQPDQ

human MET ECD [7] = molecular target: T1, human MET ECD; assay: as above
From the text: (§2) To this end, we investigated whether our human/mouse equivalent anti-MET antibodies cross-reacted with MET from other species, including rat (Rattus norvegicus) and cynomolgus monkey (Macaca fascicularis). […] Human and mouse MET ECD were used as controls. A restricted panel of antibodies representative of both SEMA binders (71D6, 71C3, 71D4, 71A3, 71G2) and PSI binders (76H10, 71G3) was selected. The 5D5 prior art antibody was used as control. MET ECD proteins were immobilized in solid phase (100 ng/well in a 96-well plate) and exposed to increasing concentrations (0-40 nM) of antibodies (with human constant regions) in solution. […] We conclude that the 71D6, 71C3, 71D4, 71A3, 71G2, 76H10 and 71G3 antibodies bind with similar affinity and capacity to human MET, mouse MET, rat MET and simian MET, at least as determined by ELISA.

mouse MET ECD [8] = molecular target: T2, mouse MET ECD; assay: as above
From the text: as §2

monkey MET ECD = molecular target: T3, monkey MET ECD (cynomolgus monkey, UniProt A0A2K5UM36 25-932); assay: as above
T3 construct: also called simian MET; cynomolgus monkey MET
T3 sequence (A0A2K5UM36 entry or part of it limits assumed): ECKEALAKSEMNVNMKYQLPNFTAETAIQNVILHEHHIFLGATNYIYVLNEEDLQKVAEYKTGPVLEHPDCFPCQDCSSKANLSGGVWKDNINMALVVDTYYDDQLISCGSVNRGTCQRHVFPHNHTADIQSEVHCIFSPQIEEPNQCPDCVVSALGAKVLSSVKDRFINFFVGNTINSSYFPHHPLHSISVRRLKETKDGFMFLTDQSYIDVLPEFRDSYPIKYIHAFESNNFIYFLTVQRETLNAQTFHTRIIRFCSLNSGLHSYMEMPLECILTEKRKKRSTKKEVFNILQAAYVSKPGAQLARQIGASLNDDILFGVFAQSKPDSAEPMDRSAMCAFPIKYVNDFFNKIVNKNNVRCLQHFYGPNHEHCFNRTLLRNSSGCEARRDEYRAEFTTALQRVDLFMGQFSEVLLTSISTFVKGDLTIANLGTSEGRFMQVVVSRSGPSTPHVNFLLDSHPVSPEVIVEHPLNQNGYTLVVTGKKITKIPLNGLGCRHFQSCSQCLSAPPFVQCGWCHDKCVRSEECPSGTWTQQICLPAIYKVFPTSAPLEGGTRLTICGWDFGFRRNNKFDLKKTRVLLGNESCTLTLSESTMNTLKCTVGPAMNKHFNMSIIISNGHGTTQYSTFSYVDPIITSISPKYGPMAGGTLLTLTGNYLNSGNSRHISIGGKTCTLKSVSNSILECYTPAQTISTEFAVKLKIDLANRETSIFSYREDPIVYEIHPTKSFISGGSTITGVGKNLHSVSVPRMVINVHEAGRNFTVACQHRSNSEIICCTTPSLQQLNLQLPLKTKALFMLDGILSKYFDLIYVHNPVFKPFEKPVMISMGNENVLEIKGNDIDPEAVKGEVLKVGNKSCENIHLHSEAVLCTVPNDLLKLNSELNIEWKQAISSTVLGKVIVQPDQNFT
From the text: as §2

[9] = molecular target: human MET ECD mutant A (mutations 1, 2, 3) (human) (UniProt P08581); assay: ELISA on mutant human MET ECD
[10] = molecular target: human MET ECD mutant D (mutations 1, 2) (human) (UniProt P08581); assay: ELISA on mutant human MET ECD
[11] = molecular target: human MET ECD mutant E (mutations 2, 3, 4) (human) (UniProt P08581); assay: ELISA on mutant human MET ECD
[12] = molecular target: human MET ECD mutant H (mutations 2, 4) (human) (UniProt P08581); assay: ELISA on mutant human MET ECD

phospho-MET ELISA EC50 [1]: 0.23 nM | phospho-MET ELISA EMAX (% HGF activity) [1]: 100
Molecule: recombinant mouse HGF (from UniProt Q08048 33-728) (ligand)

phospho-MET ELISA EC50 [2]: 0.19 nM | phospho-MET ELISA EMAX (% HGF activity) [2]: 100
Molecule: recombinant human HGF (from UniProt P14210 32-728) (ligand)

EC50 (human MET ECD [3]): 0.197 nM | EMAX (human MET ECD [3]): 3.16 OD450 | EC50 (mouse MET ECD [4]): > 40 nM
Molecule: 5D5 anti-human MET antibody, mouse IgG1/lambda format

EC50 (human MET ECD [3]): 0.067 nM | EMAX (human MET ECD [3]): 3.06 OD450 | EC50 (mouse MET ECD [4]): > 40 nM
B1: DN-30 mouse anti-human MET antibody (antibody, from another filing, V domains shown)
VH: QVQLQQPGTELVKPGASVKLSCKASGYTFTSYWIHWVKQRPGQGLEWIGEINPSSGRTNYNEKFKNKVTVTVDKSSTTAYMQLSNLTSEDSAVYYCASRGYWGQGTTLTVSS
VL: DIVLTQSPASLAVSLGQRATISCKASQSVDYDGGSYMSWFQQRPGQPPKLLISAASNLESGIPARFSGSGSGTDFTLNIHPVEEEDVATYYCQQSYEDPLTFGAGTKLELKR

% binding (EMAX) vs WT MET ECD [5]: 100% | % binding (EMAX) vs WT MET ECD [6]: 91.2% | EC50 (read off the curve) (rat MET ECD (rat)): 0.1 nM | EC50 (read off the curve) (human MET ECD [7]): ~0.08 nM | EC50 (read off the curve) (mouse MET ECD [8]): ~0.04 nM | EC50 (read off the curve) (monkey MET ECD): ~0.04 nM
B2: 71G3 llama-human chimeric mAb (human IgG1/lambda) (antibody)
heavy: QVQLVESGGGLVQPGGSLRVSCAASGFTFSTYYMSWVRQAPGKGLEWVSDIRTDGGTYYADSVKGRFTMSRDNAKNTLYLQMNSLKPEDTALYYCARTRIFPSGYDYWGQGTQVTVSSASTKGPSVFPLAPSSKSTSGGTAALGCLVKDYFPEPVTVSWNSGALTSGVHTFPAVLQSSGLYSLSSVVTVPSSSLGTQTYICNVNHKPSNTKVDKKVEPKSCDKTHTCPPCPAPELLGGPSVFLFPPKPKDTLMISRTPEVTCVVVDVSHEDPEVKFNWYVDGVEVHNAKTKPREEQYNSTYRVVSVLTVLHQDWLNGKEYKCKVSNKALPAPIEKTISKAKGQPREPQVYTLPPSRDELTKNQVSLTCLVKGFYPSDIAVEWESNGQPENNYKTTPPVLDSDGSFFLYSKLTVDKSRWQQGNVFSCSVMHEALHNHYTSEVFVPQSRKVI
light: QAVVTQEPSLSVSPGGTVTLTCGLSSGSVTTSNYPGWFQQTPGQAPRTLIYNTNSRHSGVPSRFSGSISGNKAALTIMGAQPEDEADYYCSLYPGSTTVFGGGTHLTVLQPKAAPSVTLFPPSSEELQANKATLVCLISDFYPGAVTVAWKADSSPVKAGVETTTPSKQSNNKYAASSYLSLTPEQWKSHRSYSCQVTHEGSTVEKTVAPTECS

% binding (EMAX) vs WT MET ECD [9]: 92.1% | % binding (EMAX) vs WT MET ECD [10]: 114% | % binding (EMAX) vs WT MET ECD [11]: 41.4% | % binding (EMAX) vs WT MET ECD [12]: 40.2% | EC50 (read off the curve) (rat MET ECD (rat)): 0.1 nM | EC50 (read off the curve) (human MET ECD [7]): ~0.1 nM | EC50 (read off the curve) (mouse MET ECD [8]): ~0.06 nM | EC50 (read off the curve) (monkey MET ECD): ~0.07 nM
B3: 71G2 llama-human chimeric mAb (human IgG1/lambda) (antibody)
heavy: EVQLQESGGGLVQPGGSLRLSCAASGFTFSIYDMSWVRQAPGKGLEWVSTINSDGSSTSYVDSVKGRFTISRDNAKNTLYLQMNSLKPEDTAVYYCAKVYGSTWDVGPMGYGMDYWGKGTLVTVSSASTKGPSVFPLAPSSKSTSGGTAALGCLVKDYFPEPVTVSWNSGALTSGVHTFPAVLQSSGLYSLSSVVTVPSSSLGTQTYICNVNHKPSNTKVDKKVEPKSCDKTHTCPPCPAPELLGGPSVFLFPPKPKDTLMISRTPEVTCVVVDVSHEDPEVKFNWYVDGVEVHNAKTKPREEQYNSTYRVVSVLTVLHQDWLNGKEYKCKVSNKALPAPIEKTISKAKGQPREPQVYTLPPSRDELTKNQVSLTCLVKGFYPSDIAVEWESNGQPENNYKTTPPVLDSDGSFFLYSKLTVDKSRWQQGNVFSCSVMHEALHNHYTSEVFVPQSRKVI
light: SSALTQPSALSVSLGQTARITCQGGSLGSSYAHWYQQKPGQAPVLVIYGDDSRPSGIPERFSGSSSGGTATLTISGAQAEDEDDYYCQSTDSSGNTVFGGGTRLTVLQPKAAPSVTLFPPSSEELQANKATLVCLISDFYPGAVTVAWKADSSPVKAGVETTTPSKQSNNKYAASSYLSLTPEQWKSHRSYSCQVTHEGSTVEKTVAPTECS

% binding (EMAX) vs WT MET ECD [9]: 99.8% | % binding (EMAX) vs WT MET ECD [10]: 102% | % binding (EMAX) vs WT MET ECD [11]: 59.6% | % binding (EMAX) vs WT MET ECD [12]: 61.6% | EC50 (read off the curve) (rat MET ECD (rat)): 0.3 nM | EC50 (read off the curve) (human MET ECD [7]): ~0.1 nM | EC50 (read off the curve) (mouse MET ECD [8]): ~0.1 nM | EC50 (read off the curve) (monkey MET ECD): ~0.1 nM
B4: 71C3 llama-human chimeric mAb (human IgG1/lambda) (antibody, V domains shown)
VH: QLQLVESGGGLVQPGGSLRLSCAASGFTFSSHAMSWVRQAPGKGLEWVSAINSGGGSTSYADSVKGRFTISRDNAKNTLYLQMNSLKPEDTAVYYCAKELRFDLARYTDYEAWDYWGQGTQVTVSS
VL: SYELTQPSALSVTLGQTAKITCQGGSLGSSYAHWYQQKPGQAPVLVIYDDDSRPSGIPERFSGSSSGGTATLTISGAQAEDEGDYYCQSADSSGNAAVFGGGTHLTVLQ

% binding (EMAX) vs WT MET ECD [9]: 117% | % binding (EMAX) vs WT MET ECD [10]: 128% | % binding (EMAX) vs WT MET ECD [11]: 65.4% | % binding (EMAX) vs WT MET ECD [12]: 76.7% | EC50 (read off the curve) (rat MET ECD (rat)): 0.1 nM | EC50 (read off the curve) (human MET ECD [7]): ~0.09 nM | EC50 (read off the curve) (mouse MET ECD [8]): ~0.07 nM | EC50 (read off the curve) (monkey MET ECD): ~0.1 nM
B5: 71A3 llama-human chimeric mAb (human IgG1/lambda) (antibody, V domains shown)
VH: EVQLVESGGGLVQPGGSLRLSCAASGFSFKDYDITWVRQAPGKGLEWVSTITSRSGSTSYVDSVKGRFTISGDNAKNTLYLQMNSLKPEDTAVYYCAKVYATTWDVGPLGYGMDYWGKGTLVTVSS
VL: B4 VL

% binding (EMAX) vs WT MET ECD [9]: 114% | % binding (EMAX) vs WT MET ECD [10]: 120% | % binding (EMAX) vs WT MET ECD [11]: 57.2% | % binding (EMAX) vs WT MET ECD [12]: 58.7% | EC50 (read off the curve) (rat MET ECD (rat)): 0.2 nM | EC50 (read off the curve) (human MET ECD [7]): ~0.2 nM | EC50 (read off the curve) (mouse MET ECD [8]): ~0.2 nM | EC50 (read off the curve) (monkey MET ECD): ~0.1 nM
B6: 71D4 llama-human chimeric mAb (human IgG1/lambda) (antibody, V domains shown)
VH: B4 VH with Q1E, S31G, H32Y, A33G, A50D, E99D, L100M, F102L, D103Y, T108N
VL: B4 VL with Y2S, E3A

% binding (EMAX) vs WT MET ECD [9]: 103% | % binding (EMAX) vs WT MET ECD [10]: 128% | % binding (EMAX) vs WT MET ECD [11]: 43.6% | % binding (EMAX) vs WT MET ECD [12]: 38.6% | EC50 (read off the curve) (rat MET ECD (rat)): 0.1 nM | EC50 (read off the curve) (human MET ECD [7]): ~0.1 nM | EC50 (read off the curve) (mouse MET ECD [8]): ~0.1 nM | EC50 (read off the curve) (monkey MET ECD): ~0.1 nM
B7: 71D6 llama-human chimeric mAb (human IgG1/lambda) (antibody)
heavy: ELQLVESGGGLVQPGGSLRLSCAASGFTFSSYGMSWVRQAPGKGLEWVSAINSYGGSTSYADSVKGRFTISRDNAKNTLYLQMNSLKPEDTAVYYCAKEVRADLSRYNDYESYDYWGQGTQVTVSSASTKGPSVFPLAPSSKSTSGGTAALGCLVKDYFPEPVTVSWNSGALTSGVHTFPAVLQSSGLYSLSSVVTVPSSSLGTQTYICNVNHKPSNTKVDKKVEPKSCDKTHTCPPCPAPELLGGPSVFLFPPKPKDTLMISRTPEVTCVVVDVSHEDPEVKFNWYVDGVEVHNAKTKPREEQYNSTYRVVSVLTVLHQDWLNGKEYKCKVSNKALPAPIEKTISKAKGQPREPQVYTLPPSRDELTKNQVSLTCLVKGFYPSDIAVEWESNGQPENNYKTTPPVLDSDGSFFLYSKLTVDKSRWQQGNVFSCSVMHEALHNHYTSEVFVPQSRKVI
light: QPVLNQPSALSVTLGQTAKITCQGGSLGARYAHWYQQKPGQAPVLVIYDDDSRPSGIPERFSGSSSGGTATLTISGAQAEDEGDYYCQSADSSGSVFGGGTHLTVLQPKAAPSVTLFPPSSEELQANKATLVCLISDFYPGAVTVAWKADSSPVKAGVETTTPSKQSNNKYAASSYLSLTPEQWKSHRSYSCQVTHEGSTVEKTVAPTECS
